# Assay results taken from the PETadex activity labels.
# Substrate: BHET
# Details: 120 h
row,Protein,plate clearing
1,unnamed (protein) MRTAKDFARGNPLARLCILLALAVFPALSHAQTVIFQEPFNVGIGSFTADGTVNGGGTGASMHGRIQGYSTITSPAINTTGFTNLQLAWTQMCLNSDAGEACQLWYSVNNITWDLVYSTPFAPFNSPASIALPAAAAGQSQLRLRFVRLANSFEEVYDVDNISLTGTAGGGGTTSGSTSGGTSGGGGTPCQNGPAPSATSVQGDGPFTVGTYVVPNPSGYKAGTIYYPTNTVSGACTKFAGIVTMPGYQGTQNNLSWLGPRLASNGFVVINVDTNTLSDSPDQRGAEILSALNQLVSLSNASGNPISGKVDSAKLGAMGHSMGGGGTLVAARNAMIKAAIPMAPYHNTTTNFPDVHAPTLVVTCQGDPSAPAATYGRPMYNSLTTEKAYLELTTTDGHLCVMTGYGNKAVQSRYMTSWMKRWLDGDTRYTQFLCGTTSGSNGVTTWADTCPY,not clears the plate
2,unnamed (protein) MTVCKLRMFTAQKHPVTNKIFGGSSMSSRKQDLRLRQLLYCLLLSTALGGAVVHAQTAPATIAQEAFNNGFGIFTAAGSATANGQAVLAGTFGGTDGSITSSPISTQGFSNITVSFDRTTVGLDNGEAGVAEFSVAGGAFTAIESAQTASGRMSFALAASAANQAQLRLRFRVVASRANETYSVDNVLVQGVAAGAQPPPPDPQPTNNPFQRGPTPSAATLEAAQGPFAVATTTVPNPSGFGAGTIYFPTSTTEGPFAAVSIAPGFSERQANVNWWGPRLASNGFVVVVIDTNSTSDAPASRATQLVAALRQVVTLSGTSGSPVFNKVDGNRLGVMGHSLGGGGTLIAAQNNPTLKAAIPFAPFNNDTNFSSVVVPTLIIACENDNVAPVADHASPFYNSFAASLDKAFLEIAGGSHSCANSGNNNMPILGKYGVSWMKLFMDNDTRYSPFLCGAPHQADLSGTQISEYRESCPY,not clears the plate
3,unnamed (protein) MKIDSIIKFLCTALLVTFSLGVYAGGGGGGDEPSNDGQLPAPDTCTSNCGYANGANPTLSSLQASQGQYSVGTVNVSSSVNGFGGGTIYYPTNLSGELAAIAIAPGFTNTQSAVQWWGPVLASRGFVVVTINTNGRFDFPSSRSRQLDSALNYLIYLGEQSSGAISGKVDKNRLATMGFSMGGGGALESASRNRLSATVPLAPWYSGSNPFNQINVPSMIMACENDGTAGVNTHASPFYNRIPGSTDKVYLELNNGSHNCATGQDSNYRTTISTYGVSWLKRFLDKDSRYNQFLCGPNHVANARISEFRDTCNF,not clears the plate
4,unnamed (protein) MTPTLCRPLAAVLTSAAFAALTAVSASALAQTPQEPTEASLNATAGPFSVATESVRAPRGFGGGTIYYPTAAGRYGVVAISPGFTATQSSIAWLGRRMASHGLVVITMNTNSTLDQPASRANQLMAALNHVVSASGAAVQSRADGTRRAVAGHSMGGGGALIAARDNATLRAALPLTPWNTTTDFSGVRVPTLIVGADGDGVASVTRHARPFYASLPNATAKAYGELNSASHFTPNSTNTPIGRYGVTWMKRFVDADTRYSPFLCGAAHLAYATPAVFDRYQNNCPY,not clears the plate
5,unnamed (protein) MKTTISPIKGLAIAVAIAMATVAQPALSQTSPPTSASLNATSGPLSVSTASVLLPVGFGGGTIYYPTVAGQYGVIAISPGFTATQSSIAWLGRRIATHGFVVITMDTNTTLDQPDSRATQLMAALRYVLNSSGTAVRSRVDTTRLAVAGHSMGGGGSLIAARDNPTLKASYPMTPWNLSTNFSTVRVPTMIIGADGDTIAPVATHARPFYASLPSTTFKAYGELNNGTHFSPNATSTPIGRYAVAWMKRFVDGDARYSPFLCGAEHTSYATALVFERYNQNCPY,not clears the plate
6,unnamed (protein) MTGSTTTGGRPAPPSPPSQSSTTCTTSAVASMPILTPSRVTSAHSVSSCSARNDAGGTCTALTPVVLWAVSAVTTAMPYPPAAATDFRSAWIPAPPPGSDPATDRTLGTCSGDETVGSVDGMGDIPSSVRTASGSTGVISAPGGRTPCREDTVAPVRETVSHRTRPCASPARLPMPRHGVRAEPVGAVIRQRGRTMQHSSIRSRAARRVTAALASLTVAVGLGAASGSVAQAADNPYERGPAPSESSIEATRGHYAVSERNVSRFVSGFGGGTIYYPTTTSDGTFGAVVVSPGYTGTESSIDWLGPRLASQGFVVLTMATNTIYDQPDSRARQLQAALDYLTGSSPVADRIDDDRLALMGHSMGGGGTLRAVDDNPDIKAAIPMTPWHTKKNWSTVTTPTLVFAAENDSVARHETHAEPFYNSFSDDLPKAYLELDGASHFAPNFSNTTIAKYSISWLKRFVDDDSR,not clears the plate
7,unnamed (protein) MNEVEPVNKSFLKKLSIGTGVLLVSMNALSWTPSPAPTPDPTPDPTPCQGDCDFTRGPNPTVSSVESSTGPYSVRTQSIASSVSGFGGGTIHYPTNTSGKMGAIAIAPGFLAPESSIIWWGPRLASHGFVVITIATNSVFDQPSSRGTQIGRALDYVISQSNASNSAISGMVDSTRVGAMGWSMGGGGALRLASGDRLSAAIPLAPWHQGGNSFNQLETPTLIIACENDNVAPVDRHASAFYNAIPSTTDKALLEIDGGAHSCANGDGSNDAVLGKYGISWMKRFIDNDLRYDQFLCGPNHAANSAVSEYRETCDY,not clears the plate
8,unnamed (protein) MPKYPFYSQWIVAIGALVFSINASAVTLDEVAATNKLTIKEQSTKIVSTPIASAVAITSPVSTPAVPSNCIADSIITAANLSDTRDKGPFSVAKKAVPRQLANGFGGGTIYYPTNAGGCGLLGGIAVIPGYVSYESSIKWWGPRLASWGFVVITIDTNSIYDDPDSRAAQLSAALDHMLRDNTVGAQIDSTRLGAIGWSMGGGGALQLATKRQTVRAIIPQTPYHDKDYGEMNTPALFITCQNDRIASNKKYSSRFYDKATGAKMKIEIKNGSHFCPSYRFNEILLSKPGIAWMHRYINGDTRFDQFLCSNDNYGNNPRISAYDYKLS,not clears the plate
9,unnamed (protein) MGGSMKLRSTAMRRRFVVLVAVVMLVVAACDWRGPAPTEQSLVAARGTFTVGTLAVPTSAGFGGGTIYYPGNHDGPFGVISISPGFLGNQSSIGEWGPRLASHGFVVITINTTNGFIQPPQRSTEQRQALSYVVAQGGVSSSPIFGIVDGARRGVAGHSMGGGASLISVQSDPSIKVAVPFAPWNSSANFSAVTSAVLIFACQNDSIAPVGSHASPMYNSIPASTDKSYVSVAGGDHFCANNPTGASGTAGKWALSYFKKFIDGDTRYDPWVCGASKPATGPVLNEVRSSCPF,not clears the plate
10,unnamed (protein) MSSDKRLLFTLLHRTLLACALTFSAALPACGEEDPKEVTDSSSDDDDETPVDGDTTGDDDPEPMTMKDAGKSSVKDAGKPPPTPAVDAGSTAPKDKDSGTVGGIDAGPAKDAGTVVTPPTTAGDALVRGDAPTEKSASAKGPYAVKTYTSGYPDLPGYLDSTIHYPEGAQPPFAAVVIVPGFVSAQSSIQAWGPFFASHGIVTMTIGTNTPVDQPPMREAALLDALKTVKSENTREGSPLKDKLDLSRLAGMGWSMGGGGALLLGEHNPELKAVIALCPWNPGYSYAKIKMPTLFLAAQADTLAGGQSQGFYSSIPNSVPKILYEIAGADHWHNNDPANLQGAVGRYGLAWLKVFLEGDERYRDLLKVKGPSSSDWQSNVQ,not clears the plate
11,unnamed (protein) MEISNTRQLAVRSRARSRAETGGRKWTIGLGLLLLAAVAHAQTNPYAKGPDPTSSLLNATRGPFSITSTSVSRFVSGFGGGTIYYPTTSGSYAAIAISPGFTATQSSIAWLGQRIASHGFVAITINTNSVYDQPASRATQLMAALRYLTNSSTSAVRSRVDANRLGVAGHSMGGGGALIAARDNPSLKASVPLTAWSTSKNFSTVQVPTLVVGAENDSVAPVSSHSIPFYTSLSSFLEKAYAELNNASHFAPNSTNTPIGRYSVAWVKRFMDNDTRYSPFLCGAPHQSYATSTVFSEYRSTCPY,not clears the plate
12,unnamed (protein) MIRFKTGALTNTISLCLVVALGCGGGETPETSGPPPATQTNPTAQAGATATKPTGTAGAAAPTNTGRPMMTTPPTTTTPTMTTPATAGSAAPAAGSGGTPAATGAGGAPAAEAGSGAAGSAATAGSGAEDEAAAGKGGTEATGDKNHWIRGDDPPADLSGARPGPYKVERYTDGYRNGPAYADSTINYPVDAEPPFALVVVVPGFVSPQSSIASWGPFLASHGIVTMTIGTNLPTDLPETRKDALLDAMQSLKEENTREGSPLKGKLDTSYTATMGWSMGGGGTLLVANENPELKATISLCGWNPGYPYSKIKAPALMFASLGDPLAGGQSQGFYRSIPDETPKMLIEVGAGDHFVANNPASTSGVIGRYGLAWLKVYLEGDERYRKFLLEKPAVP,not clears the plate
13,unnamed (protein) MTTIIAKLAIAASAAVLATAAFAQQQGPEQTAAQLEAGKGPFTVATAKIATPSGYGGGTVYYPTNASGKVGLIVVAPGFTETQSAMNMWGPILASNGFAVINIDTKSTLDQPPARATQMMAALKQVSDLSKTTASPYYNKIDVTRQAVMGHSMGGGGTLVAATANPALKAAIPAAPWSLATKNFPTLAVPTMIFACQSDVIAPVSGHADRFWASFNKQLPSAFAEYAGAGHQCPTSQGGADRKLVFSKLGIAWFKRFVDGDTRYTQFITNDSRLSRFLTNGSF,not clears the plate
14,unnamed (protein) MPGYQGTQQNLQWLAPRLASWGFVVINVGTTTLSDDPASRGRQISAAGTQLLALGNATGNPVSGKTDGTLGAVGHSMGGGGVMAALRDDARFRAGVPTAPYYPNMNFSQVTDPTFFLTCQSDPVAHGNTYAAPWYTSMTQAEKLYIEVPGDHLCPMTGSGDKAKQGKWIVSFLSLWLRADTRFSPFLCGPVRDADKNNTSLVTRWMDTCQF,not clears the plate
